Reference: the supplement of paper PMC10065799, “High-throughput profiling of sequence recognition by tyrosine kinases and SH2 domains using bacterial peptide display” (eLife, 2023)
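Note: 11-residue human phosphosite peptides and single-mutation variants displayed on the E. coli surface, counted by deep sequencing, each peptide's frequency after selection divided by its frequency in the unselected input library; frequency after pTyr selection over input frequency; kinase dosed for 20-30% of maximal phosphorylation in three min.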

The sequences below were run against Fyn (UniProt P06241) (assay: phosphorylation enrichment, bacterial display (enrichment ratio); higher = better substrate or ligand; peptides without Tyr show the background).
Fyn, sequence (P06241 whole entry, looked up): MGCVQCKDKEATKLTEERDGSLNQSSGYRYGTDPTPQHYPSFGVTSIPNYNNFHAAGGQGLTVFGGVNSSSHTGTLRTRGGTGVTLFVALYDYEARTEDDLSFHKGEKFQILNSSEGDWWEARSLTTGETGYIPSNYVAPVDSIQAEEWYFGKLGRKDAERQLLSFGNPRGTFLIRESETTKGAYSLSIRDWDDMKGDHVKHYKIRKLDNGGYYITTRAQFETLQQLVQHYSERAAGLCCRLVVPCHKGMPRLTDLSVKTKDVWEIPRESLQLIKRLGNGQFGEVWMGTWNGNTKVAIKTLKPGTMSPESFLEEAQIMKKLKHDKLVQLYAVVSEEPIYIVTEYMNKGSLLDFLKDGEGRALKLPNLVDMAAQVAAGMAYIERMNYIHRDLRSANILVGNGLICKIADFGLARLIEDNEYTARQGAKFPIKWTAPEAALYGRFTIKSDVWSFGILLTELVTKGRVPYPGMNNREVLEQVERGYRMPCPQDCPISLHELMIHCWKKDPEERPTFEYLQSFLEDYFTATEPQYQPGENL
With RTLSEYARPHV [RERE_Y1259] the phosphorylation enrichment was 0.668. LSALDYKIFFF [WDPCP_Y210_YF] was tested, and the phosphorylation enrichment was 0.418. QRAADYYSQQM [GBP6_Y333] showed a phosphorylation enrichment of 1.42. With AVNNFYAAKKT [CCDC178_Y422_D420N] the phosphorylation enrichment was 0.372. Sequence HKGASYVFRLS [PTPRD_Y891] has a phosphorylation enrichment of 0.539. With LLARLYRGQAL [FGFR4_Y390_G388R] the phosphorylation enrichment was 0.795. LNERHYGGLTD [PGAM2_Y92_G97D] was tested, and the phosphorylation enrichment was 0.975. With YRDALYKFMVD [PHEX_Y250] the phosphorylation enrichment was 0.61. With YDEYRYRSVIK [CFTR_Y517] the phosphorylation enrichment was 1.76. For CLLHCYFSQIR [MCM3AP_Y873], the phosphorylation enrichment was 0.327. Work on VECRVYAEDPF [PCCA_Y401_YF] yielded a phosphorylation enrichment of 0.553. GTPVMYTYDEY [COL10A1_Y623] was tested, and the phosphorylation enrichment was 1.76. TEDPEYDVQSK [PTCHD3_Y335] was tested, and the phosphorylation enrichment was 0.616. In the case of GHGEEYPVAGA [NOTCH3_Y2221_A2223V], the phosphorylation enrichment is reported as 0.438. For QHNPEYVQQAT [LRRC7_Y1058_S1063T], the phosphorylation enrichment was 0.422. Work on QNTGNYYDLYG [PTPN11_Y62_D61N] yielded a phosphorylation enrichment of 9.62. With TSKLNYLDPRI [TOP1_Y723] the phosphorylation enrichment was 0.371. KKLAEYGPQGR [CLCA1_Y147] gave a phosphorylation enrichment of 0.408. REESTYLPLTS [ICAM3_Y527] gave a phosphorylation enrichment of 1.35. With NVVHEYSSELE [FGB_Y172_N170H] the phosphorylation enrichment was 0.436. For GGMTEYELVVV [KRAS_Y4_K5E], the phosphorylation enrichment was 0.664. Sequence HPFNSYTFPRL [PAK5_Y316_S312P_YF] has a phosphorylation enrichment of 1.19. SMAKFYASGIA [ACADSB_Y373_E376G_YF] showed a phosphorylation enrichment of 0.461. Sequence DGLALYTGSAL [COL6A3_Y524_S521L] has a phosphorylation enrichment of 0.614. TYTVSYLPDMS [FLNC_Y1602] was tested, and the phosphorylation enrichment was 0.568. DHAGMYGLGDR [MAPT_Y18_T17M] showed a phosphorylation enrichment of 0.523. Sequence AGGTRYRFVSQ [UCN3_Y95_R91G_YF] has a phosphorylation enrichment of 0.536. Sequence RDSQLYAVDYE [MRPS34_Y34] has a phosphorylation enrichment of 1.33. With WKEREYEVVRD [CPS1_Y634_I632R] the phosphorylation enrichment was 0.599. AGLEEYSAMRD [HRAS_Y64_Q61L] gave a phosphorylation enrichment of 0.45. ALAAPYVLYPS [CEFIP_Y1332_G1337S] showed a phosphorylation enrichment of 0.697. With FIGVTYKNEED [PDGFRA_Y993_YF] the phosphorylation enrichment was 0.432. EPDSLYGCGRG [ATM_Y2019_G2023R] gave a phosphorylation enrichment of 2.05.

Each sequence was assayed against Hck (UniProt P08631) in the same assay as above.
Hck, sequence (P08631 whole entry, looked up): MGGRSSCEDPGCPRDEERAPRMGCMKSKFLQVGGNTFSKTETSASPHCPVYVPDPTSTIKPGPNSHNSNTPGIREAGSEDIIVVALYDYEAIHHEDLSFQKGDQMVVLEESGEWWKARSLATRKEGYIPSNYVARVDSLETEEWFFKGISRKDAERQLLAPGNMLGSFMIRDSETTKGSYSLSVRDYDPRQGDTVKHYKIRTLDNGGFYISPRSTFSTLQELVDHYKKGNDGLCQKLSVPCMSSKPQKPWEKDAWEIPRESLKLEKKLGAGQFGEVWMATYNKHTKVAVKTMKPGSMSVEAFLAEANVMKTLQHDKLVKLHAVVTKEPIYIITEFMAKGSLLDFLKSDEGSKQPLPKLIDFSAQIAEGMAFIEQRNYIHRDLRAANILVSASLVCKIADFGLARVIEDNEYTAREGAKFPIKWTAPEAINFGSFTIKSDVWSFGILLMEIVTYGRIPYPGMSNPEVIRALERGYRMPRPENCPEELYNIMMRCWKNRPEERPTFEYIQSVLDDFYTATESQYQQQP
Work on RTLSEYARPHV [RERE_Y1259] yielded a phosphorylation enrichment of 0.683. Sequence LSALDYKIFFF [WDPCP_Y210_YF] has a phosphorylation enrichment of 0.585. Work on QRAADYYSQQM [GBP6_Y333] yielded a phosphorylation enrichment of 0.611. AVNNFYAAKKT [CCDC178_Y422_D420N] gave a phosphorylation enrichment of 0.428. HKGASYVFRLS [PTPRD_Y891] showed a phosphorylation enrichment of 0.468. Sequence LLARLYRGQAL [FGFR4_Y390_G388R] has a phosphorylation enrichment of 0.519. Sequence LNERHYGGLTD [PGAM2_Y92_G97D] has a phosphorylation enrichment of 1.08. YRDALYKFMVD [PHEX_Y250] gave a phosphorylation enrichment of 0.712. YDEYRYRSVIK [CFTR_Y517] gave a phosphorylation enrichment of 1.14. CLLHCYFSQIR [MCM3AP_Y873] gave a phosphorylation enrichment of 0.413. Work on VECRVYAEDPF [PCCA_Y401_YF] yielded a phosphorylation enrichment of 0.578. GTPVMYTYDEY [COL10A1_Y623] showed a phosphorylation enrichment of 1.01. Work on TEDPEYDVQSK [PTCHD3_Y335] yielded a phosphorylation enrichment of 0.669. In the case of GHGEEYPVAGA [NOTCH3_Y2221_A2223V], the phosphorylation enrichment is reported as 0.421. In the case of QHNPEYVQQAT [LRRC7_Y1058_S1063T], the phosphorylation enrichment is reported as 0.491. QNTGNYYDLYG [PTPN11_Y62_D61N] showed a phosphorylation enrichment of 8.01. TSKLNYLDPRI [TOP1_Y723] gave a phosphorylation enrichment of 0.3. Sequence KKLAEYGPQGR [CLCA1_Y147] has a phosphorylation enrichment of 0.36. In the case of REESTYLPLTS [ICAM3_Y527], the phosphorylation enrichment is reported as 3.17. In the case of NVVHEYSSELE [FGB_Y172_N170H], the phosphorylation enrichment is reported as 0.481. Sequence GGMTEYELVVV [KRAS_Y4_K5E] has a phosphorylation enrichment of 0.585. HPFNSYTFPRL [PAK5_Y316_S312P_YF] was tested, and the phosphorylation enrichment was 0.474. SMAKFYASGIA [ACADSB_Y373_E376G_YF] showed a phosphorylation enrichment of 0.469. Sequence DGLALYTGSAL [COL6A3_Y524_S521L] has a phosphorylation enrichment of 0.901. Sequence TYTVSYLPDMS [FLNC_Y1602] has a phosphorylation enrichment of 0.582. For DHAGMYGLGDR [MAPT_Y18_T17M], the phosphorylation enrichment was 0.471. With AGGTRYRFVSQ [UCN3_Y95_R91G_YF] the phosphorylation enrichment was 0.338. RDSQLYAVDYE [MRPS34_Y34] showed a phosphorylation enrichment of 1.41. WKEREYEVVRD [CPS1_Y634_I632R] gave a phosphorylation enrichment of 0.586. Sequence AGLEEYSAMRD [HRAS_Y64_Q61L] has a phosphorylation enrichment of 0.523. ALAAPYVLYPS [CEFIP_Y1332_G1337S] gave a phosphorylation enrichment of 0.628. With FIGVTYKNEED [PDGFRA_Y993_YF] the phosphorylation enrichment was 0.451. EPDSLYGCGRG [ATM_Y2019_G2023R] was tested, and the phosphorylation enrichment was 4.04.

What follows are sequences tested on c-Src in the same assay as above.
RTLSEYARPHV [RERE_Y1259] showed a phosphorylation enrichment of 0.454. LSALDYKIFFF [WDPCP_Y210_YF] gave a phosphorylation enrichment of 0.717. QRAADYYSQQM [GBP6_Y333] was tested, and the phosphorylation enrichment was 0.524. Work on AVNNFYAAKKT [CCDC178_Y422_D420N] yielded a phosphorylation enrichment of 0.463. For HKGASYVFRLS [PTPRD_Y891], the phosphorylation enrichment was 0.583. LLARLYRGQAL [FGFR4_Y390_G388R] gave a phosphorylation enrichment of 0.489. For LNERHYGGLTD [PGAM2_Y92_G97D], the phosphorylation enrichment was 0.515. For YRDALYKFMVD [PHEX_Y250], the phosphorylation enrichment was 0.624. With YDEYRYRSVIK [CFTR_Y517] the phosphorylation enrichment was 2.15. For CLLHCYFSQIR [MCM3AP_Y873], the phosphorylation enrichment was 0.368. In the case of VECRVYAEDPF [PCCA_Y401_YF], the phosphorylation enrichment is reported as 0.693. Sequence GTPVMYTYDEY [COL10A1_Y623] has a phosphorylation enrichment of 2.42. TEDPEYDVQSK [PTCHD3_Y335] gave a phosphorylation enrichment of 0.435. With GHGEEYPVAGA [NOTCH3_Y2221_A2223V] the phosphorylation enrichment was 0.398. QHNPEYVQQAT [LRRC7_Y1058_S1063T] was tested, and the phosphorylation enrichment was 0.284. Sequence QNTGNYYDLYG [PTPN11_Y62_D61N] has a phosphorylation enrichment of 5.18. In the case of TSKLNYLDPRI [TOP1_Y723], the phosphorylation enrichment is reported as 0.405. KKLAEYGPQGR [CLCA1_Y147] gave a phosphorylation enrichment of 0.358. REESTYLPLTS [ICAM3_Y527] showed a phosphorylation enrichment of 2.39. Sequence NVVHEYSSELE [FGB_Y172_N170H] has a phosphorylation enrichment of 0.649. In the case of GGMTEYELVVV [KRAS_Y4_K5E], the phosphorylation enrichment is reported as 0.651. HPFNSYTFPRL [PAK5_Y316_S312P_YF] showed a phosphorylation enrichment of 0.602. In the case of SMAKFYASGIA [ACADSB_Y373_E376G_YF], the phosphorylation enrichment is reported as 0.352. Work on DGLALYTGSAL [COL6A3_Y524_S521L] yielded a phosphorylation enrichment of 0.635. With TYTVSYLPDMS [FLNC_Y1602] the phosphorylation enrichment was 0.561. With DHAGMYGLGDR [MAPT_Y18_T17M] the phosphorylation enrichment was 0.454. Sequence AGGTRYRFVSQ [UCN3_Y95_R91G_YF] has a phosphorylation enrichment of 0.393. Work on RDSQLYAVDYE [MRPS34_Y34] yielded a phosphorylation enrichment of 1.63. Sequence WKEREYEVVRD [CPS1_Y634_I632R] has a phosphorylation enrichment of 0.506. Sequence AGLEEYSAMRD [HRAS_Y64_Q61L] has a phosphorylation enrichment of 0.484. Work on ALAAPYVLYPS [CEFIP_Y1332_G1337S] yielded a phosphorylation enrichment of 6.33. FIGVTYKNEED [PDGFRA_Y993_YF] was tested, and the phosphorylation enrichment was 0.491. Sequence EPDSLYGCGRG [ATM_Y2019_G2023R] has a phosphorylation enrichment of 2.52.

Each sequence was assayed on Fer (mouse) in the same assay as above.
RTLSEYARPHV [RERE_Y1259] showed a phosphorylation enrichment of 0.468. With LSALDYKIFFF [WDPCP_Y210_YF] the phosphorylation enrichment was 0.672. In the case of QRAADYYSQQM [GBP6_Y333], the phosphorylation enrichment is reported as 0.579. AVNNFYAAKKT [CCDC178_Y422_D420N] showed a phosphorylation enrichment of 0.369. HKGASYVFRLS [PTPRD_Y891] gave a phosphorylation enrichment of 0.412. LLARLYRGQAL [FGFR4_Y390_G388R] showed a phosphorylation enrichment of 0.507. For LNERHYGGLTD [PGAM2_Y92_G97D], the phosphorylation enrichment was 0.7. For YRDALYKFMVD [PHEX_Y250], the phosphorylation enrichment was 0.678. With YDEYRYRSVIK [CFTR_Y517] the phosphorylation enrichment was 0.529. With CLLHCYFSQIR [MCM3AP_Y873] the phosphorylation enrichment was 0.391. VECRVYAEDPF [PCCA_Y401_YF] gave a phosphorylation enrichment of 0.669. GTPVMYTYDEY [COL10A1_Y623] showed a phosphorylation enrichment of 0.575. TEDPEYDVQSK [PTCHD3_Y335] showed a phosphorylation enrichment of 0.564. GHGEEYPVAGA [NOTCH3_Y2221_A2223V] showed a phosphorylation enrichment of 0.408. With QHNPEYVQQAT [LRRC7_Y1058_S1063T] the phosphorylation enrichment was 0.461. Sequence QNTGNYYDLYG [PTPN11_Y62_D61N] has a phosphorylation enrichment of 3.81. TSKLNYLDPRI [TOP1_Y723] was tested, and the phosphorylation enrichment was 0.241. Sequence KKLAEYGPQGR [CLCA1_Y147] has a phosphorylation enrichment of 0.316. With REESTYLPLTS [ICAM3_Y527] the phosphorylation enrichment was 1. Sequence NVVHEYSSELE [FGB_Y172_N170H] has a phosphorylation enrichment of 0.519. GGMTEYELVVV [KRAS_Y4_K5E] showed a phosphorylation enrichment of 7.66. For HPFNSYTFPRL [PAK5_Y316_S312P_YF], the phosphorylation enrichment was 0.461. SMAKFYASGIA [ACADSB_Y373_E376G_YF] gave a phosphorylation enrichment of 0.369. In the case of DGLALYTGSAL [COL6A3_Y524_S521L], the phosphorylation enrichment is reported as 0.758. In the case of TYTVSYLPDMS [FLNC_Y1602], the phosphorylation enrichment is reported as 0.491. Work on DHAGMYGLGDR [MAPT_Y18_T17M] yielded a phosphorylation enrichment of 0.388. For AGGTRYRFVSQ [UCN3_Y95_R91G_YF], the phosphorylation enrichment was 0.386. For RDSQLYAVDYE [MRPS34_Y34], the phosphorylation enrichment was 0.871. WKEREYEVVRD [CPS1_Y634_I632R] showed a phosphorylation enrichment of 0.573. AGLEEYSAMRD [HRAS_Y64_Q61L] showed a phosphorylation enrichment of 0.495. With ALAAPYVLYPS [CEFIP_Y1332_G1337S] the phosphorylation enrichment was 0.581. With FIGVTYKNEED [PDGFRA_Y993_YF] the phosphorylation enrichment was 0.49. EPDSLYGCGRG [ATM_Y2019_G2023R] gave a phosphorylation enrichment of 0.574.
